Key:
[1] = target: Myosin11 (smooth muscle myosin heavy chain, myosin II isoform) (mouse (endogenous in retina)) (UniProt O08638)
[2] = target: Myosin11 (smooth muscle myosin heavy chain, myosin II isoform) (mouse (endogenous in retina)) (UniProt O08638); assay: FRET or BRET

Chain of UniProt O08638 (O08638 whole entry, canonical isoform): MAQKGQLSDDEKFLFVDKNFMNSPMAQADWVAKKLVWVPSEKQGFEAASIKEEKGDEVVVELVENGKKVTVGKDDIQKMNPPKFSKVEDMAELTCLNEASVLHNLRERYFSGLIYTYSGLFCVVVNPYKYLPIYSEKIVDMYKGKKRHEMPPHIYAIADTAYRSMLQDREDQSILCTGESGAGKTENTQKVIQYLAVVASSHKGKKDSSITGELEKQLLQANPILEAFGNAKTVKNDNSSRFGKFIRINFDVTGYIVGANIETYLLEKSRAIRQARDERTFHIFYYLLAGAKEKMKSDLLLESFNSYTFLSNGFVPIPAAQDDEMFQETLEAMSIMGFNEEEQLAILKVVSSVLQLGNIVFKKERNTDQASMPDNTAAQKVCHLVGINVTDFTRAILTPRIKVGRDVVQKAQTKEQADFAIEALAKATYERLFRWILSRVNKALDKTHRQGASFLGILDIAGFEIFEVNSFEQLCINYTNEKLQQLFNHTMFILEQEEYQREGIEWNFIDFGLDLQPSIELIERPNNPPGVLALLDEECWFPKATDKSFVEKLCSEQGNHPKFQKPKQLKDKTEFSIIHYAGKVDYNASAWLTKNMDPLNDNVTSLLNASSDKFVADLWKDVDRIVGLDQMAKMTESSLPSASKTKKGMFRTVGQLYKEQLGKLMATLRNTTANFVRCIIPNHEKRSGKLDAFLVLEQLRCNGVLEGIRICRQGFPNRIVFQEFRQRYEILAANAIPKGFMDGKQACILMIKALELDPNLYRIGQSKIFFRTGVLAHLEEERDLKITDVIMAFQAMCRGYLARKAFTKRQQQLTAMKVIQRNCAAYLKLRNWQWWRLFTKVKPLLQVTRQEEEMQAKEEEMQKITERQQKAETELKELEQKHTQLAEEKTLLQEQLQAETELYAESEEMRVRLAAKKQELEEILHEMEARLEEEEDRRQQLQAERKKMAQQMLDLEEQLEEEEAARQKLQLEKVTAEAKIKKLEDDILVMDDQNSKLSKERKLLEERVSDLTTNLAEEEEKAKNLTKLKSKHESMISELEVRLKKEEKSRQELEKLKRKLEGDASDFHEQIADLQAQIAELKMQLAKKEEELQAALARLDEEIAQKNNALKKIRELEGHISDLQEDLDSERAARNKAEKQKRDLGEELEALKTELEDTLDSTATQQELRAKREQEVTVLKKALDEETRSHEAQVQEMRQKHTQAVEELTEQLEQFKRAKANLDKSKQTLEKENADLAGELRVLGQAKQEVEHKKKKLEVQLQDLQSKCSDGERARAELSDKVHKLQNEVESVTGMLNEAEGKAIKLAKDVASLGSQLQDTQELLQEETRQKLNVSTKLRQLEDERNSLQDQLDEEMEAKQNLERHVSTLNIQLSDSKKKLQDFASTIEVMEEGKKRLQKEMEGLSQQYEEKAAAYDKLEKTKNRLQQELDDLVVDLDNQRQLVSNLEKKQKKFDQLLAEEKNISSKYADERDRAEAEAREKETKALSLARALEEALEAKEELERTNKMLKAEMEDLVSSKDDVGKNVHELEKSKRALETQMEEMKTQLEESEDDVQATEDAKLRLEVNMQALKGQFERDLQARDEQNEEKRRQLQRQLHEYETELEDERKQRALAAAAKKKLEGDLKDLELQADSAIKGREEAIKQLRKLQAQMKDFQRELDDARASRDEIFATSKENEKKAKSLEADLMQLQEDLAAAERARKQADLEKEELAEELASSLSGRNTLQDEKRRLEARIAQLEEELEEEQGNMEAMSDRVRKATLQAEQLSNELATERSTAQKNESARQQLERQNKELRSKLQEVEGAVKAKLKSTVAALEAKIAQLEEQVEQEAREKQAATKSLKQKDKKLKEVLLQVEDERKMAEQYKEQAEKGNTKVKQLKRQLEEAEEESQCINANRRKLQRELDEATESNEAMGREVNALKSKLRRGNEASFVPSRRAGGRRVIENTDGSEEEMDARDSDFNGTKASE

Substance “α-smooth muscle actin (α-SMA) (from UniProt P62737 1-377) (natural protein)” has a JNDR after noradrenaline, mesh pericytes (orders 3-4), blebbistatin vs. vehicle [1] of 0.81 and an FRET efficiency [2] greater than 0.8.

Reference: publication doi:10.64898/2025.12.01.691715
